These results are taken from the RNAGym collection of RNA variant scans (doi:10.7554/elife.90254).

B1: LINE1-mini (parent)
chain: GGCAGAGCUCAACACAGCGUGGCAAAGUGGCUGUGGCUAGACUGCC

The data set covers variants of B1. Nature of the data set: self-cleavage, relative activity (ratio to wild type); higher = more cleavage; in vitro, sequencing; the parent is a self-cleaving ribozyme.
G19C U43G: the self-cleavage is 0.02.

Regarding G19C U43C, the self-cleavage amounted to 0.03.

For the variant C18U G33C, the self-cleavage was found to be 0.04.

Take C18U G33A: the self-cleavage worked out at 0.09.

Consider C18U G33U, for which the self-cleavage was 0.05.

On to C18U U20G, for which the self-cleavage turned out to be 0.41.

In the case of C18U U20A, the self-cleavage was found to be 0.61.

As to C18U U20C, the self-cleavage came out at 0.98.

On to G19C A24C, for which the self-cleavage was determined as 0.34.

Take G19C A24U: the self-cleavage was 0.6.

Consider G19C A24G, for which the self-cleavage was found to be 0.53.

On to C18U A39U, for which the self-cleavage worked out at 0.78.

C18U A39G: the self-cleavage stood at 0.08.

For C18U A39C, the self-cleavage turned out to be 0.16.

On to G19U, for which the self-cleavage was 0.77.

G19C: the self-cleavage was 0.5.

On to G19A, for which the self-cleavage is 1.5.

Consider G19A A39G, for which the self-cleavage turned out to be 0.1.

On to G19A A39C, for which the self-cleavage turned out to be 0.75.

Take G19A A39U: the self-cleavage was determined as 1.35.

For G19C G44U, the self-cleavage worked out at 0.15.

In the case of G19C G44C, the self-cleavage came out at 0.12.

Regarding G19C G44A, the self-cleavage came out at 0.15.

With G19C C46A, the self-cleavage stood at 0.52.

Take G19C C46G: the self-cleavage was 0.23.

Consider G19C C46U, for which the self-cleavage stood at 1.42.

With G19C U20C, the self-cleavage was determined as 0.61.

With G19C U20A, the self-cleavage amounted to 0.3.

As for G19C U20G, the self-cleavage was determined as 0.4.

In the case of G19C G27A, the self-cleavage amounted to 0.54.

Take G19C G27C: the self-cleavage stood at 0.61.

Consider G19C G27U, for which the self-cleavage amounted to 0.43.

With G19A G44U, the self-cleavage came to 0.51.

Consider G19A G44A, for which the self-cleavage came out at 0.75.

With G19A G44C, the self-cleavage was found to be 0.48.

Consider G19A C31G, for which the self-cleavage came to 0.17.

For the variant G19A C31U, the self-cleavage was 0.6.

Consider G19A C31A, for which the self-cleavage was 0.46.

For G19U A26U, the self-cleavage was determined as 0.56.

As for G19U A26C, the self-cleavage was 0.61.

In the case of C18G U28C, the self-cleavage is 0.36.

C18G U28A: the self-cleavage came out at 0.39.

C18G U28G: the self-cleavage was 0.22.

In the case of C18U, the self-cleavage is 1.21.

Regarding C18G G21C, the self-cleavage was 0.62.

In the case of C18G G21U, the self-cleavage came to 1.38.

C18G G21A: the self-cleavage was 0.77.

Turning to G19C G35A, the self-cleavage turned out to be 0.17.

G19C G35U: the self-cleavage was 0.07.

Regarding G19C G35C, the self-cleavage worked out at 0.17.

With C18G U43G, the self-cleavage worked out at 0.13.

Turning to C18G U43A, the self-cleavage came to 0.07.

On to C18G U43C, for which the self-cleavage amounted to 0.06.

For the variant C18U A25G, the self-cleavage is 0.26.

Consider C18U A25U, for which the self-cleavage worked out at 0.7.

As for C18U A25C, the self-cleavage was found to be 0.86.

For C18G G40U, the self-cleavage was 0.06.

Consider C18G G40A, for which the self-cleavage came out at 0.05.

For the variant C18G G40C, the self-cleavage was found to be 0.05.

Take G19C G21U: the self-cleavage is 0.47.

In the case of G19C G21A, the self-cleavage was 0.51.

Turning to G19C G21C, the self-cleavage came out at 0.27.

Consider C18U G44U, for which the self-cleavage is 0.07.

For C18U G44C, the self-cleavage was found to be 0.28.

With C18U G44A, the self-cleavage was 0.22.

With G19C A25G, the self-cleavage was 0.26.

For the variant G19C A25U, the self-cleavage was determined as 0.26.

With G19C A25C, the self-cleavage was found to be 0.5.

In the case of G19A U43C, the self-cleavage was 0.18.

G19A U43G: the self-cleavage came to 0.06.

In the case of G19A U43A, the self-cleavage came out at 0.15.

For G19C A41C, the self-cleavage is 0.05.

In the case of G19C A41U, the self-cleavage amounted to 0.19.

On to G19C A41G, for which the self-cleavage turned out to be 0.03.

With G19C A26U, the self-cleavage amounted to 0.37.

In the case of G19C A26G, the self-cleavage is 0.27.

On to G19C A26C, for which the self-cleavage was determined as 0.68.

C18G G29U: the self-cleavage amounted to 0.96.

Take C18G G29C: the self-cleavage came to 0.49.

Turning to C18G G29A, the self-cleavage came to 1.38.

As for G19A G40U, the self-cleavage is 0.16.

On to G19A G40A, for which the self-cleavage was 0.11.

In the case of G19A G40C, the self-cleavage is 0.07.

C18G G27A: the self-cleavage was found to be 1.04.

Regarding C18G G27C, the self-cleavage was found to be 0.38.

Turning to C18G G27U, the self-cleavage is 0.61.

Take C18G A39C: the self-cleavage came out at 0.06.

In the case of C18G A39G, the self-cleavage was determined as 0.07.

With C18G A39U, the self-cleavage was 0.47.

As for C18U G36U, the self-cleavage came out at 0.06.

As for C18U G36C, the self-cleavage was 0.06.

C18U G36A: the self-cleavage came to 0.15.

On to C18U G30A, for which the self-cleavage was 1.78.

For the variant C18U G30U, the self-cleavage is 0.4.

Consider C18U G30C, for which the self-cleavage stood at 1.82.

On to C18U U32G, for which the self-cleavage is 0.09.

In the case of C18U U32C, the self-cleavage was found to be 0.16.

As to C18U U32A, the self-cleavage was 0.04.

On to C18G G19U, for which the self-cleavage was found to be 0.56.

Turning to C18G G19A, the self-cleavage stood at 0.31.

C18G G19C: the self-cleavage is 0.83.

Take C18G G22C: the self-cleavage amounted to 0.12.

For C18G G22A, the self-cleavage is 0.82.

Take C18G G22U: the self-cleavage came out at 0.87.

C18G C46A: the self-cleavage was 0.43.

Turning to C18G C46G, the self-cleavage was found to be 0.25.

Turning to C18G C46U, the self-cleavage is 0.4.

Take G19U A25U: the self-cleavage came to 0.67.

As for G19U A25G, the self-cleavage was 0.49.

As for G19U A25C, the self-cleavage worked out at 0.61.

C18G G44A: the self-cleavage worked out at 0.07.

C18G G44U: the self-cleavage was found to be 0.05.

For the variant C18G G44C, the self-cleavage worked out at 0.1.

As to C18U G35A, the self-cleavage turned out to be 0.1.

Take C18U G35U: the self-cleavage worked out at 0.08.

Regarding C18U G35C, the self-cleavage was 0.03.

C18G C31U: the self-cleavage worked out at 0.02.

As to C18G C31G, the self-cleavage turned out to be 0.04.

In the case of C18G C31A, the self-cleavage worked out at 0.06.

Regarding C18U C31A, the self-cleavage was determined as 0.08.

On to C18U C31U, for which the self-cleavage was 0.04.

With C18U C31G, the self-cleavage is 0.05.

For the variant G19A C45U, the self-cleavage turned out to be 1.74.

On to G19A C45G, for which the self-cleavage worked out at 0.38.

As for G19A C45A, the self-cleavage stood at 0.79.

Take G19A U34G: the self-cleavage came to 0.29.

Consider G19A U34A, for which the self-cleavage was 0.1.

Consider G19A U34C, for which the self-cleavage stood at 0.43.

As for C18U U34C, the self-cleavage is 0.07.

For the variant C18U U34A, the self-cleavage turned out to be 0.07.

C18U U34G: the self-cleavage came out at 0.03.

Regarding C18U U43C, the self-cleavage is 0.09.

With C18U U43A, the self-cleavage came out at 0.06.

Turning to C18U U43G, the self-cleavage turned out to be 0.

For the variant C18U G40C, the self-cleavage is 0.04.

Regarding C18U G40U, the self-cleavage was 0.12.

For C18U G40A, the self-cleavage amounted to 0.1.

For the variant C18G C23G, the self-cleavage was 0.66.

As for C18G C23A, the self-cleavage worked out at 0.64.

As to C18G C23U, the self-cleavage was 0.89.

For C18G G30U, the self-cleavage came out at 0.62.

For C18G G30C, the self-cleavage was determined as 1.

For the variant C18G G30A, the self-cleavage is 0.92.

For the variant G19A G36C, the self-cleavage was determined as 0.16.

For the variant G19A G36U, the self-cleavage is 0.09.

Regarding G19A G36A, the self-cleavage is 0.18.

As to C18U C46G, the self-cleavage turned out to be 1.24.

Regarding C18U C46U, the self-cleavage came out at 1.43.

Turning to C18U C46A, the self-cleavage amounted to 0.46.

C18U A41G: the self-cleavage came out at 0.26.

For the variant C18U A41C, the self-cleavage is 0.05.

For C18U A41U, the self-cleavage is 0.92.

C18U A24U: the self-cleavage is 0.97.

C18U A24G: the self-cleavage came to 1.01.

As for C18U A24C, the self-cleavage was 0.39.

Take G19C G30U: the self-cleavage was 0.54.

Take G19C G30A: the self-cleavage turned out to be 0.91.

As to G19C G30C, the self-cleavage came out at 1.

As for G19A C46A, the self-cleavage came to 0.81.

G19A C46U: the self-cleavage amounted to 1.74.

As for G19A C46G, the self-cleavage was determined as 1.53.

Consider C18U U28A, for which the self-cleavage was determined as 0.86.

In the case of C18U U28G, the self-cleavage worked out at 0.43.

As for C18U U28C, the self-cleavage came to 1.2.

As for G19A A26G, the self-cleavage is 0.98.

Consider G19A A26C, for which the self-cleavage worked out at 0.52.

Consider G19A A26U, for which the self-cleavage came out at 1.89.
